Experimental data from patent US20050064507.

Assays:
[1] = system: T1, CREB1 peptide EILSRRPSYRKILND (SEQ ID NO:106)
T1 sequence: EILSRRPSYRKILND

[2] = system: T2, KCNH2 peptide RQRKRKLSFRRRTDKD (SEQ ID NO:86)
T2 sequence: RQRKRKLSFRRRTDKD

[3] = system: T3, titin peptide PFEVVWYKDKRQLRSSKKYK (SEQ ID NO:160)
T3 sequence: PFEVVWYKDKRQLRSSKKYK

[4] = system: T4, MCM2 peptide VQRHRSMRKTFARYLSFRRD (SEQ ID NO:129)
T4 sequence: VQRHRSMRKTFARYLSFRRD

[5] = system: T5, peptide QKKSRLRRRASQLKI (SEQ ID NO:9)
T5 sequence: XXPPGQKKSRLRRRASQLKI

[6] = system: T6, ankyrin R peptide DLIEGRKGAQIVKRASLKRG (SEQ ID NO:152)
T6 sequence: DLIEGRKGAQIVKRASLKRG

[7] = system: T7, MGC2941 peptide RPTPGDGEKRSRIKKSKKRK (SEQ ID NO:139)
T7 sequence: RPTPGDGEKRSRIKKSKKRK

[8] = system: T8, dag kinase iota peptide NRKKKRTSFKRKA (SEQ ID NO:115)
T8 sequence: NRKKKRTSFKRKA

[9] = system: T9, MARCKS peptide KKRFSFKKSFKLSGFSFKKN (SEQ ID NO:119)
T9 sequence: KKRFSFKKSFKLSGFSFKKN

[10] = system: T10, NMDAR1 peptide RAITSTLASSFKRRR (SEQ ID NO:122)
T10 sequence: RAITSTLASSFKRRR

[11] = system: T11, peptide LLGSGKVTDRKAL (SEQ ID NO:39)
T11 sequence: XXPPGLLGSGKVTDRKAL

[12] = system: T12, ADD2 peptide KKKFRTPSFLKKSKK (SEQ ID NO:95)
T12 sequence: KKKFRTPSFLKKSKK

[13] = system: T13, PSCDBP peptide LSSMFGTLPRKSRKGSVRKQ (SEQ ID NO:144)
T13 sequence: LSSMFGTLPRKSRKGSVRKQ

[14] = system: T14, cyclophilin G peptide TEEKSKKRKKKHRKNSRKHK (SEQ ID NO:165)
T14 sequence: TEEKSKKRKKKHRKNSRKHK

[15] = system: T15, MARCKS peptide KKRFSFKKSFKLSGFSFKKN (SEQ ID NO:123)
T15 sequence: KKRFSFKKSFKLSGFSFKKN

[16] = system: T16, peptide AKNLKTLQKRDSFIG (SEQ ID NO:53)
T16 sequence: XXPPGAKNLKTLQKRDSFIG

[17] = system: T17, ubiquitin specific protease 8 peptide RARRDSLKKIEIW (SEQ ID NO:136)
T17 sequence: RARRDSLKKIEIW

[18] = system: T18, NEURL peptide ALRRPSLRREADD (SEQ ID NO:105)
T18 sequence: ALRRPSLRREADD

[19] = system: T19, dag kinase zeta peptide KKKKRASFKRKSSKKG (SEQ ID NO:114)
T19 sequence: KKKKRASFKRKSSKKG

[20] = system: T20, peptide RGEGHKPSIAHRDFK (SEQ ID NO:68)
T20 sequence: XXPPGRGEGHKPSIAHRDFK

[21] = system: T21, peptide IDYYKKTTNGRLPVK (SEQ ID NO:73)
T21 sequence: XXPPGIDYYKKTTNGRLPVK

[22] = system: T22, peptide EKIKRSSLKKVDSLKK (SEQ ID NO:24)
T22 sequence: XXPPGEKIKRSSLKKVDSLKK

[23] = system: T23, Myt1 kinase peptide PPRTPGWHQLQPRRVSFRGE (SEQ ID NO:163)
T23 sequence: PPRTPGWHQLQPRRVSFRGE

[24] = system: T24, peptide EARLGAASLKFGARD (SEQ ID NO:56)
T24 sequence: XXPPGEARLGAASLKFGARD

[25] = system: T25, peptide GFAKKIGSGQKTWTF (SEQ ID NO:66)
T25 sequence: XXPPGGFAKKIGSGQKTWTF

[26] = system: T26, peptide RRRQKRRTGALVLSRGGKR (SEQ ID NO:71)
T26 sequence: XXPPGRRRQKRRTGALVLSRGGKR

[27] = system: T27, peptide KKRKKKSSKSLAHA (SEQ ID NO:27)
T27 sequence: XXPPGKKRKKKSSKSLAHA

[28] = system: T28, MARCKS peptide KKKRFSFKKSFKLSGFSFKK (SEQ ID NO:111)
T28 sequence: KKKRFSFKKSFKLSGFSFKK

[29] = system: T29, PARIS1 peptide EYLERRASRRRAV (SEQ ID NO:138)
T29 sequence: EYLERRASRRRAV

[30] = system: T30, phospholemman peptide EEGTFRSSIRRLSTRRR (SEQ ID NO:116)
T30 sequence: EEGTFRSSIRRLSTRRR

[31] = system: T31, peptide ALRRPSLRREADD (SEQ ID NO:26)
T31 sequence: XXPPGALRRPSLRREADD

[32] = system: T32, MLK3 peptide HVRRRRGTFKRSKLRARD (SEQ ID NO:76)
T32 sequence: HVRRRRGTFKRSKLRARD

[33] = system: T33, NCF1 peptide GAPPRRSSIRNAH (SEQ ID NO:101)
T33 sequence: GAPPRRSSIRNAH

[34] = system: T34, LIMK2 peptide KATTKKRTLRKNDRK (SEQ ID NO:108)
T34 sequence: KATTKKRTLRKNDRK

[35] = system: T35, NIK peptide WKGKRRSKARKKRK (SEQ ID NO:131)
T35 sequence: WKGKRRSKARKKRK

[36] = system: T36, peptide RVKLGTLRRPEGP (SEQ ID NO:58)
T36 sequence: XXPPGRVKLGTLRRPEGP

[37] = system: T37, peptide NYLRRRLSDSNFMAN (SEQ ID NO:38)
T37 sequence: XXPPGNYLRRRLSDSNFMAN

[38] = system: T38, MYBPC3 peptide LLKKRDSFRTPRDSKLE (SEQ ID NO:103)
T38 sequence: LLKKRDSFRTPRDSKLE

[39] = system: T39, MARCKS peptide PSPSNETPKKKKKRFSFKKS (SEQ ID NO:157)
T39 sequence: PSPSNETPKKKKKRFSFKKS

[40] = system: T40, MARCKS peptide KKKKKRFSFKKSFKL (SEQ ID NO:80)
T40 sequence: KKKKKRFSFKKSFKL

**Q.** How did the in vitro phosphorylation (% of best substrate) [1] turn out when PKC-delta was run?
**A.** 9

**Q.** And the in vitro phosphorylation (% of best substrate) [2]?
**A.** 42

**Q.** And the in vitro phosphorylation, 1 uM peptide (% of best substrate) [3]?
**A.** 25

**Q.** What about the in vitro phosphorylation, 10 uM peptide (% of best substrate) [3] of the same substance?
**A.** 31

**Q.** And the in vitro phosphorylation, 1 uM peptide (% of best substrate) [4]?
**A.** 32

**Q.** And the in vitro phosphorylation, 10 uM peptide (% of best substrate) [4]?
**A.** 14

**Q.** And the in vitro phosphorylation (% of best substrate) [5]?
**A.** 34

**Q.** What about the in vitro phosphorylation, 1 uM peptide (% of best substrate) [6] of the same substance?
**A.** 35

**Q.** What about the in vitro phosphorylation, 10 uM peptide (% of best substrate) [6] of the same substance?
**A.** 18

**Q.** And the in vitro phosphorylation, 1 uM peptide (% of best substrate) [7]?
**A.** 31

**Q.** And the in vitro phosphorylation, 10 uM peptide (% of best substrate) [7]?
**A.** 24

**Q.** What about the in vitro phosphorylation, 1 uM peptide (% of best substrate) [8] of the same substance?
**A.** 94

**Q.** What about the in vitro phosphorylation, 10 uM peptide (% of best substrate) [8] of the same substance?
**A.** 99

**Q.** What about the in vitro phosphorylation, 1 uM peptide (% of best substrate) [9] of the same substance?
**A.** 42

**Q.** What about the in vitro phosphorylation, 10 uM peptide (% of best substrate) [9] of the same substance?
**A.** 16

**Q.** And the in vitro phosphorylation, 1 uM peptide (% of best substrate) [10]?
**A.** 55

**Q.** And the in vitro phosphorylation, 10 uM peptide (% of best substrate) [10]?
**A.** 24

**Q.** And the in vitro phosphorylation (% of best substrate) [11]?
**A.** 3

**Q.** What about the in vitro phosphorylation (% of best substrate) [12] of the same substance?
**A.** 25

**Q.** And the in vitro phosphorylation, 1 uM peptide (% of best substrate) [13]?
**A.** 35

**Q.** What about the in vitro phosphorylation, 10 uM peptide (% of best substrate) [13] of the same substance?
**A.** 28

**Q.** And the in vitro phosphorylation, 1 uM peptide (% of best substrate) [14]?
**A.** 25

**Q.** What about the in vitro phosphorylation, 10 uM peptide (% of best substrate) [14] of the same substance?
**A.** 19

**Q.** And the in vitro phosphorylation, 1 uM peptide (% of best substrate) [15]?
**A.** 45

**Q.** What about the in vitro phosphorylation, 10 uM peptide (% of best substrate) [15] of the same substance?
**A.** 22

**Q.** And the in vitro phosphorylation (% of best substrate) [16]?
**A.** 2

**Q.** And the in vitro phosphorylation, 1 uM peptide (% of best substrate) [17]?
**A.** 41

**Q.** And the in vitro phosphorylation, 10 uM peptide (% of best substrate) [17]?
**A.** 23

**Q.** And the in vitro phosphorylation (% of best substrate) [18]?
**A.** 9

**Q.** What about the in vitro phosphorylation, 1 uM peptide (% of best substrate) [19] of the same substance?
**A.** 80

**Q.** And the in vitro phosphorylation, 10 uM peptide (% of best substrate) [19]?
**A.** 100

**Q.** And the in vitro phosphorylation (% of best substrate) [20]?
**A.** 1

**Q.** And the in vitro phosphorylation (% of best substrate) [21]?
**A.** 0

**Q.** What about the in vitro phosphorylation (% of best substrate) [22] of the same substance?
**A.** 10

**Q.** And the in vitro phosphorylation, 1 uM peptide (% of best substrate) [23]?
**A.** 13

**Q.** And the in vitro phosphorylation, 10 uM peptide (% of best substrate) [23]?
**A.** 21

**Q.** And the in vitro phosphorylation (% of best substrate) [24]?
**A.** 2

**Q.** And the in vitro phosphorylation (% of best substrate) [25]?
**A.** 1

**Q.** And the in vitro phosphorylation (% of best substrate) [26]?
**A.** 1

**Q.** What about the in vitro phosphorylation (% of best substrate) [27] of the same substance?
**A.** 8

**Q.** What about the in vitro phosphorylation (% of best substrate) [28] of the same substance?
**A.** 16

**Q.** What about the in vitro phosphorylation, 1 uM peptide (% of best substrate) [29] of the same substance?
**A.** 49

**Q.** What about the in vitro phosphorylation, 10 uM peptide (% of best substrate) [29] of the same substance?
**A.** 28

**Q.** And the in vitro phosphorylation, 1 uM peptide (% of best substrate) [30]?
**A.** 75

**Q.** And the in vitro phosphorylation, 10 uM peptide (% of best substrate) [30]?
**A.** 41

**Q.** And the in vitro phosphorylation (% of best substrate) [31]?
**A.** 9

**Q.** And the in vitro phosphorylation (% of best substrate) [32]?
**A.** 100

**Q.** What about the in vitro phosphorylation (% of best substrate) [33] of the same substance?
**A.** 13

**Q.** And the in vitro phosphorylation (% of best substrate) [34]?
**A.** 6

**Q.** And the in vitro phosphorylation, 1 uM peptide (% of best substrate) [35]?
**A.** 38

**Q.** And the in vitro phosphorylation, 10 uM peptide (% of best substrate) [35]?
**A.** 29

**Q.** What about the in vitro phosphorylation (% of best substrate) [36] of the same substance?
**A.** 1

**Q.** What about the in vitro phosphorylation (% of best substrate) [37] of the same substance?
**A.** 3

**Q.** And the in vitro phosphorylation (% of best substrate) [38]?
**A.** 12

**Q.** And the in vitro phosphorylation, 1 uM peptide (% of best substrate) [39]?
**A.** 27

**Q.** And the in vitro phosphorylation, 10 uM peptide (% of best substrate) [39]?
**A.** 35

**Q.** And the in vitro phosphorylation (% of best substrate) [40]?
**A.** 24
